Reference: IntAct's records for PubMed 28335037

B1: E3 ubiquitin-protein ligase LRSAM1 (Homo sapiens), Q6UWE0 (parent)
chain: MPLFFRKRKPSEEARKRLEYQMCLAKEAGADDILDISKCELSEIPFGAFATCKVLQKKVLIVHTNHLTSLLPKSCSLLSLATIKVLDLHDNQLTALPDDLGQLTALQVLNVERNQLMQLPRSIGNLTQLQTLNVKDNKLKELPDTVGELRSLRTLNISGNEIQRLPQMLAHVRTLEMLSLDASAMVYPPREVCGAGTAAILQFLCKESGLEYYPPSQYLLPILEQDGIENSRDSPDGPTDRFSREELEWQNRFSDYEKRKEQKMLEKLEFERRLELGQREHTQLLQQSSSQKDEILQTVKEEQSRLEQGLSEHQRHLNAERQRLQEQLKQTEQNISSRIQKLLQDNQRQKKSSEILKSLENERIRMEQLMSITQEETESLRRRDVASAMQQMLTESCKNRLIQMAYESQRQNLVQQACSSMAEMDERFQQILSWQQMDQNKAISQILQESAMQKAAFEALQVKKDLMHRQIRSQIKLIETELLQLTQLELKRKSLDTESLQEMISEQRWALSSLLQQLLKEKQQREEELREILTELEAKSETRQENYWLIQYQRLLNQKPLSLKLQEEGMERQLVALLEELSAEHYLPIFAHHRLSLDLLSQMSPGDLAKVGVSEAGLQHEILRRVQELLDAARIQPELKPPMGEVVTPTAPQEPPESVRPSAPPAELEVQASECVVCLEREAQMIFLNCGHVCCCQQCCQPLRTCPLCRQDIAQRLRIYHSS

Variants of: B1
Details: with ube2b_rabit UBE2B

effect of a mutation on the interaction	Variant
disrupting interaction strength	C694Y
disrupting interaction strength	P707L
with no effect	Q573K
